# Laboratory results reported in patent publication US9023604 (IBA, dated 2015).
# Numbering of substitutions follows the chain as printed. In names and notes the source's numbering stands.
# B1: 13B8.2 Fab fragment (variable domains of murine anti-CD4 antibody 13B8.2, human CH1 gamma1 and human kappa constant domains), heavy chain fused to One-STrEP-tag (Fab, V domains shown)
# VH: QVQLKQSGPGLVQPSQSLSITCTVSGFSLTTFGVHWVRQSPGKGLEWLGVIWRSGITDYNVPFMSRLSITKDNSKSQVFFKLNSLQPDDTAIYYCAKNDPGTGFAYWGQGTLVTVSA
# VL: DIQMTQSPASLSASVGETVTFTCRASEMIYSYLAWYQQKQGKSPQLLVHDAKTLAEGVPSRFSGGGSGTQFSLKINTLQPEDFGTYYCQHHYGNPPTFGGGTKLEIKR
# notes: Expressed in the E. coli periplasm; Stained as a monomer or multimerized on Strep-Tactin PE; also called CD4 wt (13B8.2); 13B8.2 wildtype (wt) Fab fragment
# B2: Mutant 13B8.2 Fab fragment with His at position 35 of the heavy chain mutated to Ala, heavy chain fused to One-STrEP-tag (Fab, V domains shown)
# VH: B1 VH with H35A
# VL: B1 VL
# notes: also called CD4 mutant 3 (H35A); mutant 3
# B3: Mutant 13B8.2 Fab fragment with Phe at position 100 of the heavy chain mutated to Ala, heavy chain fused to One-STrEP-tag (Fab, V domains shown)
# VH: B1 VH with F104A
# VL: B1 VL
# notes: also called CD4 mutant 1 (F100A); F100K-H
# B4: Mutant 13B8.2 Fab fragment with Tyr at position 92 of the light chain mutated to Ala, heavy chain fused to One-STrEP-tag (Fab, V domains shown)
# VH: B1 VH
# VL: B1 VL with Y92A
# notes: also called CD4 mutant 2 (Y92A); mutant 2
# B5: Mutant 13B8.2 Fab fragment with His at position 91 of the light chain mutated to Ala, heavy chain fused to One-STrEP-tag (Fab, V domains shown)
# VH: B1 VH
# VL: B1 VL with H91A
# notes: also called CD4 mutant 4 (H91A); mutant 4
# Biological target: T1, CD4 cell surface receptor molecule on peripheral blood mononuclear cells (PBMCs) (human, UniProt P01730 26-458)
# T1 construct: whole, on cells; also called CD4 receptor molecule
# Experiment: flow cytometry, PBMCs, live CD3+ T cells; column 'Fab multimer': Fab multimerized on Strep-Tactin PE
# Protocol: (§1) Remaining Fab-monomers (i.e. Fab fragments used as receptor binding reagent) on the target cell surface were then detected after subsequent washing steps to remove […] using Strep-Tactin PE alone (without bound Fab fragments) (fourth column). Fab-multimer staining after the reversible staining described above of the cells was performed again (fifth column) to control completion of biotin removal which otherwise would have hampered the staining of remaining Fab-monomers with Strep-Tactin PE alone (without bound Fab fragments) as shown in the fourth column and which thus would have led to a wrong conclusion of the experiment. Alternatively, cells were incubated with monomeric Fab-fragments, washed and subsequently analyzed after staining with Strep-Tactin® PE (first, i.e. left-most column). Live CD3^+ T cells are shown. Numbers in the dot plots indicate the percentage of cells within gates.
# (§2) For staining of a CD4 receptor molecule specific target cell population in a mixture of cells, Strep-Tactin® labeled with phycoerythrine as a fluorescent label (IBA GmbH, Göttingen, Germany) was used as multimerization reagent together with the monomeric CD4 binding Fab-One-STrEP fragment of the variants of the antibody 13B8.2 (that served as receptor binding reagent) as described below. For FACS analysis 5×10^6 PBMCs were incubated with Fab multimers consisting of 0.2 μg Fab-fragment (comprising binding site B) equipped with the One-STrEP-tag (binding partner C) as receptor binding reagent and 0.75 μg Strep-Tactin® PE (IBA GmbH, Göttingen, Germany) as multimerization reagent using the protocol below. In addition, after FACS separation, the multivalent complexes were disrupted in a portion of each of the stained cells by addition of biotin as described below. Control antibody stainings were performed by concomitant application of the respective antibody: anti-CD4 (OKT4) (from eBiosciences, San Diego, Calif., USA). After the staining procedure of the present invention, cells were subsequently stained with propidium iodide for live/dead discrimination.
# Protocol for Staining of 5×10^6 Cells with Receptor Binding Reagent and Multimerization Reagent 1. 0.75 μg Strep-Tactin PE were incubated with 0.2 μg monomeric CD4 binding Fab-One-STrEP fragment for 30 minutes at 4° C. in the dark. 2.
row,Binder,percentage of cells within gate
1,B1,23.3%
2,B2,23.4%
3,B3,23%
4,B4,14.7%
5,B5,23.1%

# Biological target: T1, CD4 cell surface receptor molecule on …
# Experiment: flow cytometry, PBMCs, live CD3+ T cells; column 'Fab multimer -> D-biotin': Fab-multimer staining analysed after treatment with D-biotin
# Protocol: as §1, §2
# (§3) For staining and dissociation experiments, 5 ×10^6 PBMCs were incubated with the respective anti-CD4 Fab-multimer-Strep-Tactin® PE complexes or with the corresponding Fab-monomers (the latter not complexed with Strep-Tactin® PE).
row,Binder,percentage of cells within gate
1,B1,0.041%
2,B2,0.041%
3,B3,0.014%
4,B4,0.034%
5,B5,0.017%

# Biological target: T1, CD4 cell surface receptor molecule on …
# Experiment: flow cytometry, PBMCs, live CD3+ T cells; column 'Fab multimer -> D-biotin -> Fab multimer': second Fab-multimer staining after D-biotin and washing
# Source text: as §1, with “Peripheral Blood Mononuclear Cells (PBMCs) were stained with anti-CD4 Fab fragments (receptor binding reagent) fused to a sequential arrangement of two Strep-tag® sequences (commercially available under the trade name "One-STrEP-tag"; binding partner C) and multimerized on phycoerythrin labeled Strep-Tactin® (Strep-Tactin PE; IBA GmbH, Göttingen, Germany; multimerization reagent comprising at least 2 binding sites Z for the binding partner C) and analyzed either before (second column) or after treatment with D-biotin (third column). Remaining” for “Remaining”
# as §3
row,Binder,percentage of cells within gate
1,B1,18.8%
2,B2,19.3%
3,B3,19.2%
4,B4,18.8%
5,B5,20%

# Biological target: T1, CD4 cell surface receptor molecule on …
# Experiment: flow cytometry, PBMCs, live CD3+ T cells; column 'Fab multimer -> D-biotin -> ST-PE': after D-biotin and washing, remaining Fab monomers detected with Strep-Tactin PE alone
# Source text: as §1, with “Peripheral Blood Mononuclear Cells (PBMCs) were stained with anti-CD4 Fab fragments (receptor binding reagent) fused to a sequential arrangement of two Strep-tag® sequences (commercially available under the trade name "One-STrEP-tag"; binding partner C) and multimerized on phycoerythrin labeled Strep-Tactin® (Strep-Tactin PE; IBA GmbH, Göttingen, Germany; multimerization reagent comprising at least 2 binding sites Z for the binding partner C) and analyzed either before (second column) or after treatment with D-biotin (third column). Remaining” for “Remaining”
# (§4) For staining and dissociation experiments, 5 ×10^6 PBMCs were incubated with the respective anti-CD4 Fab-multimer-Strep-Tactin® PE complexes or with the corresponding Fab-monomers (the latter not complexed with Strep-Tactin® PE). […] After D-biotin-mediated disruption of the multimeric complexes (FIG. 2, third column) and subsequent washing, the cells were probed for residual surface-bound Fab fragments by the addition of Strep-Tactin® PE alone (without bound Fab) (FIG. 2, fourth column).
row,Binder,percentage of cells within gate
1,B1,16.1%
2,B2,0.019%
3,B3,16.4%
4,B4,0.0017%
5,B5,0.00284%

# Biological target: T1, CD4 cell surface receptor molecule on …
# Experiment: flow cytometry, PBMCs, live CD3+ T cells; column 'Fab monomer -> ST-PE': cells incubated with monomeric Fab, washed, then stained with Strep-Tactin PE; y axis CD4 Fab-multimer / Fab-monomer, x axis CD8
# Source text: as §1, with “Peripheral Blood Mononuclear Cells (PBMCs) were stained with anti-CD4 Fab fragments (receptor binding reagent) fused to a sequential arrangement of two Strep-tag® sequences (commercially available under the trade name "One-STrEP-tag"; binding partner C) and multimerized on phycoerythrin labeled Strep-Tactin® (Strep-Tactin PE; IBA GmbH, Göttingen, Germany; multimerization reagent comprising at least 2 binding sites Z for the binding partner C) and analyzed either before (second column) or after treatment with D-biotin (third column). Remaining” for “Remaining”
# as §4
row,Binder,percentage of cells within gate
1,B1,20%
2,B2,0.007%
3,B3,19.9%
4,B4,0.0022%
5,B5,0.0039%
